Experimental data taken from PMC9482650, “Quantitative fragmentomics allow affinity mapping of interactomes” (Nature Communications, 2022).

Tests used:
Assay in all cases: holdup assay
Set-up in all cases: key: below the threshold = too weak to quantify, mostly under pKd 3.1 to 4
Conditions in all cases: plain residues with an end cap or a label only (N-terminal biotin on a linker: ttds)
PICK1, Q9NRD5 = target: PICK1, Q9NRD5
LRRC7, Q96NW7 = target: T1, LRRC7, Q96NW7
T1 sequence (Q96NW7 1440-1537, limits assumed, looked up): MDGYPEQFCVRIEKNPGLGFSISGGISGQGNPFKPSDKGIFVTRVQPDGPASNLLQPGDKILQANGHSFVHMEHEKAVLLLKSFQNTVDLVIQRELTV

FRMPD2_1, Q68DX3 = target: FRMPD2_1, Q68DX3
FRMPD2_1, Q68DX3, sequence (Q68DX3 770-861): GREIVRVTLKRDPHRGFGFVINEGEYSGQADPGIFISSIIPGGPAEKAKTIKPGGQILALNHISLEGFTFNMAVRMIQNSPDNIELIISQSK

SNX27, Q96L92 = target: SNX27, Q96L92
PDZD2_2, O15018 = target: T2, PDZD2_2, O15018
T2 sequence (O15018 329-429, limits assumed, looked up): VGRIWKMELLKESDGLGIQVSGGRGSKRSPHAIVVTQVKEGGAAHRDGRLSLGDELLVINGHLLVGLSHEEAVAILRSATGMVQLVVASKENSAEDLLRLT

LNX2_3, Q8N448 = target: T3, LNX2_3, Q8N448
T3 sequence (Q8N448 463-564, limits assumed, looked up): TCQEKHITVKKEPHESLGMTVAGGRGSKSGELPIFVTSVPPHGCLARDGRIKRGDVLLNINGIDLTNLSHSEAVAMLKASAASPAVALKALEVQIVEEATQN

FRMPD4, Q14CM0 = target: FRMPD4, Q14CM0
FRMPD4, Q14CM0, sequence (Q14CM0 67-160): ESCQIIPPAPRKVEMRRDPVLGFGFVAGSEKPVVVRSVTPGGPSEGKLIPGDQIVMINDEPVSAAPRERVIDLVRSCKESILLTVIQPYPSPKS

PARD3_3, Q8TEW0 = target: PARD3_3, Q8TEW0
PARD3_3, Q8TEW0, sequence (Q8TEW0 582-685): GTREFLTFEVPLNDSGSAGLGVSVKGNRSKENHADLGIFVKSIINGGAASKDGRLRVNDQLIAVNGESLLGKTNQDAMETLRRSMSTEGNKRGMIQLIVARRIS

GRIP1_2, Q9Y3R0 = target: T4, GRIP1_2, Q9Y3R0
T4 sequence (Q9Y3R0 145-248, limits assumed, looked up): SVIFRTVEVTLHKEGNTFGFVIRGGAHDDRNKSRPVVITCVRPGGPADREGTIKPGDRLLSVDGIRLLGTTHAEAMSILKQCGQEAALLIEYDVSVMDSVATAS

MPDZ_12, O75970 = target: T5, MPDZ_12, O75970
T5 sequence (O75970 1857-1958, limits assumed, looked up): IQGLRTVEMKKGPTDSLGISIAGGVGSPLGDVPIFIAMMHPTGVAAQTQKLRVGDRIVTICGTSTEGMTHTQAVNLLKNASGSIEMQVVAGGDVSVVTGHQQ

Inadl_3, Q8NI35 = target: Inadl_3, Q8NI35
Inadl_3, Q8NI35, sequence (Q8NI35 359-469): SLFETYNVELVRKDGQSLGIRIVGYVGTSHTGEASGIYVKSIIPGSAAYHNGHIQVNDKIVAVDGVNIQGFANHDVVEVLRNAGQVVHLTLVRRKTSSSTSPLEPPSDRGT

SHANK1, Q9Y566 = target: T6, SHANK1, Q9Y566
T6 sequence (Q9Y566 658-767, limits assumed, looked up): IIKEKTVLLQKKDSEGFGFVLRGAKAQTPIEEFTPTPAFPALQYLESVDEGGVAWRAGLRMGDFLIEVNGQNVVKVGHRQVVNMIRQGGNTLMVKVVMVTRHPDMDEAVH

GRIP2_7, Q9C0E4 = target: GRIP2_7, Q9C0E4
GRIP2_7, Q9C0E4, sequence (Q9C0E4 934-1023): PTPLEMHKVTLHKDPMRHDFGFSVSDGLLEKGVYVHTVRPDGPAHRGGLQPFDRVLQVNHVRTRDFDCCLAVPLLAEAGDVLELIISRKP

NOS1, P29475 = target: NOS1, P29475
NOS1, P29475, sequence (P29475 9-101): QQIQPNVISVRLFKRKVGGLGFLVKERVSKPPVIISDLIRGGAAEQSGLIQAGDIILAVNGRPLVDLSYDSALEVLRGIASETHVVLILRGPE

DLG1_3, Q12959 = target: DLG1_3, Q12959
DLG1_2, Q12959 = target: DLG1_2, Q12959
Inadl_1, Q8NI35 = target: Inadl_1, Q8NI35
Inadl_1, Q8NI35, sequence (Q8NI35 113-229): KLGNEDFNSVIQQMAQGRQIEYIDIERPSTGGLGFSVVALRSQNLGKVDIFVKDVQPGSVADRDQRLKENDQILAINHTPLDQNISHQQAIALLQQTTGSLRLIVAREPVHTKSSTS

GIPC2, Q8TF65 = target: GIPC2, Q8TF65
GIPC2, Q8TF65, sequence (Q8TF65 112-203): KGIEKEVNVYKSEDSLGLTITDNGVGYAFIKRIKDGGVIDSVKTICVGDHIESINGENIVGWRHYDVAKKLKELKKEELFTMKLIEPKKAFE

DLG4_2, P78352 = target: DLG4_2, P78352
DLG4_2, P78352, sequence (P78352 155-259): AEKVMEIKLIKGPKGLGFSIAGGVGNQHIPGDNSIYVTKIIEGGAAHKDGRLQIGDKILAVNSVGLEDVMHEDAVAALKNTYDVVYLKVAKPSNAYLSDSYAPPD

RADIL, Q96JH8 = target: T7, RADIL, Q96JH8
T7 sequence (Q96JH8 971-1071, limits assumed, looked up): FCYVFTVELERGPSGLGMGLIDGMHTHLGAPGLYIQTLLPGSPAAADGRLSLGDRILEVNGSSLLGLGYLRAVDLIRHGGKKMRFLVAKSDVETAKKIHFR

DLG1_1, Q12959 = target: DLG1_1, Q12959
DLG2_2, Q15700 = target: DLG2_2, Q15700
DLG2_2, Q15700, sequence (Q15700 189-283): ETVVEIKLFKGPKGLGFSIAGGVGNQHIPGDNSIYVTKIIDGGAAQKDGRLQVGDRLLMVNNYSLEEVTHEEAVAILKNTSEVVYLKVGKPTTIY

GRASP, Q7Z6J2 = target: GRASP, Q7Z6J2
GRASP, Q7Z6J2, sequence (Q7Z6J2 96-193): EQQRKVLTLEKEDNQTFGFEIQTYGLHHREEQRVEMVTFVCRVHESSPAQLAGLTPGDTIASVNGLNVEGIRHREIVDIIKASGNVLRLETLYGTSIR

GRIP2_6, Q9C0E4 = target: GRIP2_6, Q9C0E4
GRIP2_6, Q9C0E4, sequence (Q9C0E4 648-740): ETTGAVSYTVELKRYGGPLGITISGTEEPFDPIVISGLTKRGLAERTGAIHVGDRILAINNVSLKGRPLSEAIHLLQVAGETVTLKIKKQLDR

GRIP1_7, Q9Y3R0 = target: T8, GRIP1_7, Q9Y3R0
T8 sequence (Q9Y3R0 999-1096, limits assumed, looked up): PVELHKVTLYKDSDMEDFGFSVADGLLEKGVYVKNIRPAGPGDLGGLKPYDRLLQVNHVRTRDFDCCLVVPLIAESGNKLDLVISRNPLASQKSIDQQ

APBA3_1, O96018 = target: T9, APBA3_1, O96018
T9 sequence (O96018 389-490, limits assumed, looked up): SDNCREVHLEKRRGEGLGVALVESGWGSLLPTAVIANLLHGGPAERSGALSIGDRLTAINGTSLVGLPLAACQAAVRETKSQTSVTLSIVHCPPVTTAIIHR

SNTA1, Q13424 = target: T10, SNTA1, Q13424
T10 sequence (Q13424 82-180, limits assumed, looked up): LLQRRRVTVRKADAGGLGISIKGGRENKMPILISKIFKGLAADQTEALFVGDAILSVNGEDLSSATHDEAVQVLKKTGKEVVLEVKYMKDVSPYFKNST

LIMK2, P53671 = target: LIMK2, P53671
LIMK2, P53671, sequence (P53671 143-248): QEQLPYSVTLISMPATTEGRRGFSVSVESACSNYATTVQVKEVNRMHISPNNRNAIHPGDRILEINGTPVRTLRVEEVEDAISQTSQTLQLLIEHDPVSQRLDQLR

PICK1, Q9NRD5, sequence (Q9NRD5 17-115): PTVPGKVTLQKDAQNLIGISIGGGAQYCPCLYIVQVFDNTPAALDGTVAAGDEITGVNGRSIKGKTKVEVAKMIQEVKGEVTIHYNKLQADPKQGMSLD

B1: ABCC4, O15439 (peptide)
chain: STLTIFETAL
PICK1, Q9NRD5
  pKd: below the threshold
LRRC7, Q96NW7
  pKd: 4.39
FRMPD2_1, Q68DX3
  pKd: 3.84
SNX27, Q96L92
  pKd: 5.85
PDZD2_2, O15018
  pKd: 3.65
LNX2_3, Q8N448
  pKd: below the threshold
FRMPD4, Q14CM0
  pKd: 4.64
PARD3_3, Q8TEW0
  pKd: 4.31
GRIP1_2, Q9Y3R0
  pKd: below the threshold
MPDZ_12, O75970
  pKd: below the threshold
Inadl_3, Q8NI35
  pKd: 4
SHANK1, Q9Y566
  pKd: 5.1
GRIP2_7, Q9C0E4
  pKd: below the threshold
NOS1, P29475
  pKd: 4.04
DLG1_3, Q12959
  pKd: 4.38
DLG1_2, Q12959
  pKd: 4.57
Inadl_1, Q8NI35
  pKd: 3.53
GIPC2, Q8TF65
  pKd: below the threshold
DLG4_2, P78352
  pKd: 4.23
RADIL, Q96JH8
  pKd: 3.56
DLG1_1, Q12959
  pKd: 4.46
DLG2_2, Q15700
  pKd: 4.15
GRASP, Q7Z6J2
  pKd: 4.74
GRIP2_6, Q9C0E4
  pKd: below the threshold
GRIP1_7, Q9Y3R0
  pKd: below the threshold
APBA3_1, O96018
  pKd: below the threshold
SNTA1, Q13424
  pKd: 4.75
LIMK2, P53671
  pKd: below the threshold
